The values below come from IntAct's records for PubMed 25601757.

The target of this assay is wt1_human WT1 (UniProt P19544).
Sequence of wt1_human WT1 (P19544 whole entry): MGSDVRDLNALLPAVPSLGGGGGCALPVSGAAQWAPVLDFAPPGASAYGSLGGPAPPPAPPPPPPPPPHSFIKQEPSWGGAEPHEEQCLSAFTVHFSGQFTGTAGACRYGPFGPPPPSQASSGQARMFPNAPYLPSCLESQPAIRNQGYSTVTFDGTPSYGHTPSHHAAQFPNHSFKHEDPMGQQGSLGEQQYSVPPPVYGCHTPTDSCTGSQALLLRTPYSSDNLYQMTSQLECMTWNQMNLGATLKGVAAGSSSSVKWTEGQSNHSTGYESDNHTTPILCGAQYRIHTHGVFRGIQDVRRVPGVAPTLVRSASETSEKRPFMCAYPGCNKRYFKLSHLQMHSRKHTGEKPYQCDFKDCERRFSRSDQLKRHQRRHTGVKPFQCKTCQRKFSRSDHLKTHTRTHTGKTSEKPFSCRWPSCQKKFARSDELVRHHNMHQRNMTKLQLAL
On to “Methylcytosine dioxygenase TET2 (Homo sapiens), Q6N021 R1302G”, for which the “effect of a mutation on the interaction” value is given as “disrupting interaction strength”. For “Methylcytosine dioxygenase TET2 (Homo sapiens), Q6N021 D1314G” the value was “with no effect”; for “Methylcytosine dioxygenase TET2 (Homo sapiens), Q6N021 T1884A”, “disrupting interaction strength”; for “Methylcytosine dioxygenase TET2 (Homo sapiens), Q6N021 P1617H”, “disrupting interaction strength”. Turning to “Methylcytosine dioxygenase TET2 (Homo sapiens), Q6N021 D1242V”, the “effect of a mutation on the interaction” value is given as “disrupting interaction strength”. Take “Methylcytosine dioxygenase TET2 (Homo sapiens), Q6N021 A1505T”: the “effect of a mutation on the interaction” value is “disrupting interaction strength”. “Methylcytosine dioxygenase TET2 (Homo sapiens), Q6N021 L1340R”: the “effect of a mutation on the interaction” value is on record as “decreasing interaction strength”. With “Methylcytosine dioxygenase TET2 (Homo sapiens), Q6N021 G1256D”, the “effect of a mutation on the interaction” value is on record as “disrupting interaction strength”. For “Methylcytosine dioxygenase TET2 (Homo sapiens), Q6N021 F1368L” the value was “decreasing interaction strength”; for “Methylcytosine dioxygenase TET2 (Homo sapiens), Q6N021 G1861R”, “disrupting interaction strength”.
